Biological target: T1, L-TAT-IB1(s)
T1 chain: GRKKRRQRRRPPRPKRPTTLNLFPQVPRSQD

B1: Recombinant and non activated JNK3 (protein)
chain: MSLHFLYYCSEPTLDVKIAFCQGFDKQVDVSYIAKHYNMSKSKVDNQFYSVEVGDSTFTVLKRYQNLKPIGSGAQGIVCAAYDAVLDRNVAIKKLSRPFQNQTHAKRAYRELVLMKCVNHKNIISLLNVFTPQKTLEEFQDVYLVMELMDANLCQVIQMELDHERMSYLLYQMLCGIKHLHSAGIIHRDLKPSNIVVKSDCTLKILDFGLARTAGTSFMMTPYVVTRYYRAPEVILGMGYKENVDIWSVGCIMGEMVRHKILFPGRDYIDQWNKVIEQLGTPCPEFMKKLQPTVRNYVENRPKYAGLTFPKLFPDSLFPADSEHNKLKASQARDLLSKMLVIDPAKRISVDDALQHPYINVWYDPAEVEAPPPQIYDKQLDEREHTIEEWKELIYKEVMNSEEKTKNGVVKGQPSPSGAAVNSSESLPPSSSVNDISSMSTDQTLASDTDSSLEASAGPLGCCR
For B1, the “JNK3 phosphorylation of Elk1 (solid phase kinase assay)” value was “a marked exception was the absence of TAT-IB(s) inhibition of JNK3 phosphorylation of Elk1”.
